Reference: the RNAGym collection of RNA variant scans (doi:10.1073/pnas.2313332121)
Fewer inactive variants are shown than the library holds.

B1: TPR 5TU (parent)
chain: GGAUCUUCUCGAUCUAACAAAAAAGACAAAUCUGCCACAAAGCUUGAGAGCAUCUUCGGAUGCAGAGGCGGCAGCCUUCGGUGGCGCGAUAGCGCCAACGUUCUCAACUAUGACACGCAAAACGCGUGCUCCGUUGAAUGGAGUUUAUCAUG

Variants of: B1
Test: polymerase ribozyme fitness, log enrichment relative to wild type (log ratio); higher = more active; in vitro selection for triplet polymerase activity
Method in brief: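 In triplicate, a single round of in vitro selection was run on each mutant library, PCR-built and transcribed, covering one subunit of a heterodimeric triplet polymerase ribozyme. Frozen incubation at −7 °C followed annealing with a biotinylated primer, partner subunit and triplets, and extended constructs were then gel-excised, streptavidin-captured and taken through RT-PCR. Fitness is the logarithm of genotype enrichment over wild-type enrichment, from inverse-variance-weighted replicate averages of Illumina-sequenced inputs and outputs. […] only genotypes with ≥10 input reads and ≥1 read per output were kept.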

Variant | polymerase ribozyme fitness (log ratio)
GGCUCUUCUCGAUCUAACAAAUAAGACAAAUCUGCCACAAAGCUUGAGUGCGUCUACGGAUGCAGAGGCGGCAGCCUUCGGUGGCGCGAUAGCGCCAACGUUCUCAACUAUGACACGCAAAACGCGUGCUCCGUUGAAUGGAGUUUAUCAUG [A3C A22U A49U A52G U56A] | -3.02
GGCUCUUCUCGGUCUAACAAAAAAGACAAAUCUGCCACAAAGCUUGAGAGCAUCUUCGGAUGCAGAGGCGGCAGCCUUCGGUGGCGGGAUAGCGCCAACGUUCUCAACUAUGACACGCAAAACGCGUGCUCCGUUGAAUGGAGUUUAUCAUG [A3C A12G C87G] | -3.93
GGCUCUUCUCGUUCUAACAAAAAAGACAAAUCUGCCACAAAGCUUGAGAGCAUCUUCCGAUGCAGAGGCGGCAGCCUUCGGUGGCGCGAUAGCGCCAACGUUCUCAACUAUGACACGUAAAACGCGUGCUCCGUUGAAUGGAGUUUAUCAUG [A3C A12U G58C C118U] | -1.52
GGCUCUUCUCGAUCUAACAAAAAAGACAAAUCUGCCACAAAGCUUGAGAGGAUCGUCGGAUGCAGAGGCGGCAGUCUUCGGUGGCGCGAUAGCGCCAACGUUCUCAACUAUGACACGAAAAACGCGUGCUCCGUUGAAUGGAGUUUAUCAUG [A3C C51G U55G C75U C118A] | ≤ -4.2
GGCUCUUCUCGAUGUAACAAAAAAGAUAAAUCUGCCACAAAGCUUGAGAGCAUCUUCGGAUGCAGAGGCGGCAGCCUUCGGUGGUGCGAUAGCGCCAACGUUCUCAACUAUGACACGCAAAACGCGUGCUCCGUUGAAUGGAGGUUAUCAUG [A3C C14G C27U C85U U144G] | -2.9
GGCUCUUCUCGAUCUACCUAAAAACACAAAUCUGCCACAAAGCUUGAGAGCAUCUUCGGAUGCAGAGGCGGCAGCCUUCGGUGGCGCGAUAGUGCCAACGUUCUCAACUAUGACGCGCAUAACGCGUGCUCCGUUGAAUGGAGUUUAUCAUG [A3C A17C A19U G25C C93U A115G A120U] | ≤ -4.2
GGCUCUUCUCGAUCUAACAAAUAAGACAAAUCUGCCGCAAAGCUUGAGAGCAUGUUUGGAUGCAGAGGCGGCAGCCUUCGGUGGUGCCAUAGCGCCAACGUUCUCAACUAUGACACCCAAAACGCGUGUUCCGUUGAAUGGAGUUUAUCAUG [A3C A22U A37G C54G C57U C85U G88C G117C C129U] | ≤ -4.2
GGCUCUUCUCAAUCUAACCAAAAAGACAAAUCUGCCACAAAGCUUGAGAGCAUUUUCGGAUGCAGAGGCGGCAGCCUUCGGUGGCGCGAUAGCGCCAACGUUCUCAACUAUGACACGCAAAUCGCGUGCUCCGUAGAAUGGAAUUUAUCAUG [A3C G11A A19C C54U A122U U135A G143A] | -3.73
GGCUCUUCUGGAUCUAACAAAAAAGACAAAUCUGCCACAAAGCUUGAGAGCAUCUUCGGAUUCAGAGCCGGCAGCCUUCGGUGGCGUGAUAGCGCCAACGUUCUCACCUAUGACACGCAAAAUGCGUACUCCGUUGCACGGAGUUUAUCAUG [A3C C10G G62U G68C C87U A107C C123U G128A A137C U139C] | ≤ -4.2
GGCUCUUCUCGAUCUAACAAAAAAGACAAAUCUGCCACAAAGCUUGAGAGCAUCUUCAGAUGCAGAGGCGGCAGCCUUCGGUGGCGCGAUAGCACCAACGUUCUCAACUAUGACACGCAAAACGCGUGCUCCGUUGAAUGGAGUUUAUCAUG [A3C G58A G94A] | -0.578
GGCUUUUCUCGAUCUAACAAAAAAGACAAAUCUGCCACAAAGCUUGAGAGCAUCUUCGGAUCCAGAGGCGGCAGCCUUCGGUGGCGCGAUAGCGCCAACGUUCUCAACUAUGACACGCAAAACGCGUGCUCCGUUGAAUGGAGUUUAUCAUG [A3C C5U G62C] | -1.89
GGCUCUUCUCGAUCUAGCAAAAAAGACAAAUCUGCCACAAAGCUUGAGAGCAUCUUCGGAUGCAGAGGGGGCAGCCUUCGGUGGCGCGAUAGCGCCAACGUUCUCAACUAUGACAGGCAAAGCGCGUGCUCCGUUGAAUGGAGUUUAUCAUG [A3C A17G C69G C116G A122G] | -1.99
GGCUCUUCUCGAUCUAACAAAAAAGACAAAUCUGCCACAAAGCUUGAGAGCAUCUUCGGAUGCAGAGGCGGCAGCCUUCGGUGGCGCGAUAGCGCCAACGUUCUCAACUAUGACACGCAAUACGCGUGCUCCGUUGAAUGGAGUUUAUCAUG [A3C A121U] | 0.339
GGCUCUUCUCGAUCUAACAAAAAAGACAAAUCUCCCACAAAGCUUGACAGCAUCUUCGGAUGCAGAGGCGGCAGCCUUCGGUGGCGCGAUAGCGCCAACGUUCUCUACUAUGACACGCAAAACGCGUGCUCCGUUGAGUGGAGUUUAUCGUG [A3C G34C G48C A106U A138G A150G] | ≤ -4.2
GGCUCUUCUCGAUCUAACAAAAAAGACAAAUCUGCCACAAAGCUUGAGAGCAUCUUCGGAUGCAGAGGCGGCAGCCUUUGGUGGCGCGAUAGUGUCAACGUUCUCAACUAUGACACGCAAAACGCGUGCUCCGUUGAAUGGAGUUUAUCAUG [A3C C79U C93U C95U] | ≤ -4.2
GGCUCUUCUCGAUCUAACAAAAAAGACAAAUCUGCCACAAAGCUUGAGAGCAUCUUUGGAUGCAGAGGCGGCAGCCUUCGGUGGCGCGAUAGAGCCAACGUUCUCAACUAUGACACGCAAAACGCGUGCUCCGUUGAAUGGAGUUUAUCAUG [A3C C57U C93A] | -1.56
GGCUCUUCUCGAUCUAACAAAAAAGACAAAUCUGCCACAAAGCUUGCGAGCAUCUUCGCAUGCAGAGGCGGCAGCCUUCGGUGGCACGAUAGCGCCAACGUUCUCAACUAUGACACGCAAAACGCGUGCUCCGUUGAAUGGAGUUUAUCAUG [A3C A47C G59C G86A] | -3.89
GGCUCUUCUCGAUCUAACAAAAAAGACAAAUCUGCCACAAGGCUUGAGACCAGCUUCGGAUGCAGAUGCGGCAGCCUUCGGUGGCCCGAUAGCGCCAACGUUCUCAACUAUGACACGCAAAACGCGUUUUCCGUUGAAUGGAGUUGAUUAUG [A3C A41G G50C U53G G67U G86C G128U C129U U146G C149U] | ≤ -4.2
GGCUCUUCUCGAUCUAACAAAACAGACAAAUCUGCCACAAAGCUUGAGAGCAUCUUCGGAUGCAGAGGCGGCAACCUUCGGUGGAGCGAUAGCGCCAACGUUUUCAACUAUGACACGCAAAACGCGUGCACCGUUGAAUGGAGUUUAUCAUG [A3C A23C G74A C85A C103U U130A] | ≤ -4.2
GGCUCUUGGCGAUCUAACAAAAAAGACAAAUCUGCCACAAAGCUUGAGAGCAUCUUCGAAUGCAGAGGCGGCAGCCUUCGGUGGCGAGAUACCGCCAACGUUCUCAACUAUGACACCCAAAACGCGUGCUCCUUUGAAUGGAGUUUAUCAUG [A3C C8G U9G G59A C87A G92C G117C G133U] | ≤ -4.2
